Earlier results on one substance are cited in article PMC2656448.

The term Kd denotes the constant that tells how readily two partners part at equilibrium.

The target in this series is Histone H3 (H3K4me0) (Homo sapiens) (UniProt P68431).

For AIRE PHD1 (from UniProt O43918), the Kd was 5 µM.
